Consider five molecules from article PMC7394560, “Post-replicative pairing of sister ter regions in Escherichia coli involves multiple activities of MatP” (Nature Communications, 2020).

The target in series [1] is T1, MatP (Escherichia coli, UniProt P0A8N0 1-150).
T1 sequence: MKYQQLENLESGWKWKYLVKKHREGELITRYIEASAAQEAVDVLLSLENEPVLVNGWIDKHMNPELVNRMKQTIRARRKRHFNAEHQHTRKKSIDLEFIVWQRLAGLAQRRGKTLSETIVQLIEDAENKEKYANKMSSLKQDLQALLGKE
As to the kind of experiment: pull-down. To be noted: EMSA: 10 mM Tris pH 7.5, 125 mM NaCl, 2.5 mM MgCl2, 0.5 mM DTT, 5% glycerol, 1 uM DNA, 0.25 ug poly(dI-dC), 30 C; pull-down: 20 mM Tris pH 7.5, 1 mM MgCl2 …. In general terms: A gel shift assay detects complexes by their altered migration in electrophoresis.

Series [2] concerns the molecule itself. As to the kind of experiment: native gel or EMSA; 41 bp matS DNA (1 µM) with 3 µM protein; 10 mM Tris pH 7.5, 125 mM NaCl, 2.5 mM MgCl2, 0.5 mM DTT, 5% glycerol, poly(dI-dC); 30 °C for 30 min; 5% native TGE-PAGE; oligomer size on DNA inferred from the mobility of the complexes against theoretical masses.
Series [3] concerns the target T1, MatP. As to the kind of experiment: EMSA; 3 uM MatP, 2.5 mM Mg2+, poly(dI-dC); proposed tetramer; titration 0.2-2 uM in Suppl. Fig. 7a,b; EMSA: 10 mM Tris pH 7.5, 125 mM NaCl, 2.5 mM MgCl2, 0.5 mM DTT, 5% glycerol, 1 uM DNA, 0.25 ug poly(dI-dC), 30 C; pull-down: 20 mM Tris pH 7.5, 1 mM MgCl2, 150. To be noted: protein: recombinant; MW 21 kDa); chain copies: 4; label: 5' Cy3 on strand 1; blunt.

Another series addresses T2, MatPΔ20 untagged (Escherichia coli, UniProt P0A8N0 1-130).
T2 sequence: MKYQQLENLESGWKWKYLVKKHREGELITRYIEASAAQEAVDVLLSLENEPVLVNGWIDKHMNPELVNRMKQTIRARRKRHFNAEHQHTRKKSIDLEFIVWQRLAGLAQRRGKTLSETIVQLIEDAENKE
The series can be described thus: EMSA; equivalent efficiency to MatP; EMSA: 10 mM Tris pH 7.5, 125 mM NaCl, 2.5 mM MgCl2, 0.5 mM DTT, 5% glycerol, 1 uM DNA, 0.25 ug poly(dI-dC), 30 C; pull-down: 20 mM Tris pH 7.5, 1 mM MgCl2, 150. To be noted: protein: recombinant; tags: none; chain copies: 2; label: 5' Cy3 on strand 1; blunt.

A further series concerns the target T3, MatPΔ20-His (Escherichia coli, UniProt P0A8N0 1-130).
T3 sequence: T2 sequence
The series can be described thus: EMSA; equivalent efficiency to MatP; faster-migrating complex; EMSA: 10 mM Tris pH 7.5, 125 mM NaCl, 2.5 mM MgCl2, 0.5 mM DTT, 5% glycerol, 1 uM DNA, 0.25 ug poly(dI-dC), 30 C; pull-down: 20 mM Tris pH 7.5, 1 mM MgCl2, 150. To be noted: protein: recombinant; tags: His tag (MW 32 kDa with tag); chain copies: 2; label: 5' Cy3 on strand 1; blunt.

Turning to DNAf(2matS), the binding signal (% DNAf recovered) with MatP [1] is 63.

B1: his-tagged MatPΔ20 (domain or fragment, E. coli, UniProt P0A8N0 1-130, looked up)
chain: T2 sequence
notes: MatP of Escherichia coli lacking the last 20 C-terminal residues; theoretical mass of the tagged protein printed as 32 kDa; The printed 32 kDa ('twice bigger' than MatP) is far more than a His tag adds to about 130 residues; also called MatPΔ20-tag; source: E. coli BL21DE3, purified (HisTrap column)
On to B1, for which the “stoichiometry N” value in series [2] came out at 2.

B2: untagged MatPΔ20 (domain or fragment, E. coli, UniProt P0A8N0 1-130, looked up)
chain: T2 sequence
notes: MatP of Escherichia coli lacking the last 20 C-terminal residues; theoretical mass printed as 18 kDa; source: E. coli BL21DE3 (pET15b containing matPΔ20), purified (heparin column)
As for B2, the “stoichiometry N” value in series [2] was 2.

B3: MatP (natural protein, E. coli, UniProt P0A8N0 1-150, looked up)
chain: T1 sequence
notes: MatP, macrodomain Ter protein of Escherichia coli; theoretical mass printed as 21 kDa; also called MatP wt; source: E. coli BL21DE3 (pET15b containing matP), purified (heparin column)
On to B3, for which the “stoichiometry N” value in series [2] came out at 4.

B4: matS41 (dsDNA)
DNA 1: AAGTACGGTAAAAGGTGACAGTGTCACTTTCATTGTTGGTA
DNA 2: TACCAACAATGAAAGTGACACTGTCACCTTTTACCGTACTT
On to B4, for which the binding result with MatP [3], with MatPΔ20 untagged and with MatPΔ20-His was “binds” each time.

As a reminder, the stoichiometry N is a count of units in the complex or per binding partner.
